Test results: publication PMC6703679

Target: extracellular signal-regulated kinase (ERK1/2), endogenous in mouse spinal dorsal horn (mouse (endogenous in spinal dorsal horn)) (UniProt P63085)

B1: glycine receptor α1^ins subunit, endogenous in mouse spinal dorsal horn (receptor)
chain: ARSAPKPMSPSDFLDKLMGRTSGYDARIRPNFKGPPVNVSCNIFINSFGSIAETTMDYRVNIFLRQQWNDPRLAYNEYPDDSLDLDPSMLDSIWKPDLFFANEKGAHFHEITTDNKLLRISRNGNVLYSIRITLTLACPMDLKNFPMDVQTCIMQLESFGYTMNDLIFEWQEQGAVQVADGLTLPQFILKEEKDLRYCTKHYNTGKFTCIEARFHLERQMGYYLIQMYIPSLLIVILSWISFWINMDAAPARVGLGITTVLTMTTQSSGSRASLPKVSYVKAIDIWMAVCLLFVFSALLEYAAVNFVSRQHKELLRFRRKRRHHKSPMLNLFQDDEGGEGRFNFSAYGMGPACLQAKDGISVKGANNNNTTNPPPAPSKSPEEMRKLFIQRAKKIDKISRIGFPMAFLIFNMFYWIIYKIVRREDVHNK
GlyR-IPSCs in spinal slices from formalin-injected mice, with bath application of TAT-pep-α1^ins (% of baseline): 145
